Target: Aβ40 fibrils formed from a synthetic Aβ40 peptide (human)
Experiment: cell-based or functional assay

“nattokinase (from UniProt P35835 107-381) (enzyme)” showed a rate of Aβ fibril degradation (37 C, pH 7.4, ThT binding assay) of 0.015 s⁻¹.

From US20100129294A1
